Experimental data: patent US20200206304A1, “METHODS AND COMPOSITIONS FOR EFFICIENT DELIVERY THROUGH MULTIPLE BIO BARRIERS” (Cedars-Sinai Medical Center, priority 2017, published 2020)
Where two headings read alike, the source gives them in different places. Square brackets hold non-standard residues; d marks the D form. Ends that are not written are not given here.

Legend:
brain parenchyma = settings: cortex; 0.274 μmol/Kg
Procedure: To determine how nanoconjugate-associated fluorescence relates to the anatomy of the vasculature, the distance of each analyzed ROI was manually measured from the nearest blood vessel wall (using line tool in FIJI). For tumor bearing mice, 5 images per tumor tissue and 5 per brain tissue were analyzed for each mouse. Intensity values were then plotted against the location of the blood vessel wall and summarized in scatterplots (e.g., FIG. 14B).
Drug concentrations are listed with regard to total nanoconjugate content systemically injected. […] Referring to FIG. 14B, fluorescence measurements were obtained from 10 μm^2-sized regions of interest (ROI) that were randomly overlaid on regions devoid of vasculature shown as yellow squares on photograph 1 of FIG. 14A. Intensity measurements and positions were then obtained for each ROI and plotted against the location of the nearest blood vessel wall. FIG. 14C is set of charts: chart 1—Cortex; chart 2—Midbrain and chart 3 Hippocampus, illustrating average nanoconjugate fluorescence in the brain parenchyma measured following injections at four different drug concentrations. In this figure, fluorescence is shown as relative fluorescence, which is the measured nanoconjugate fluorescence after subtraction of autofluorescence imaged from PBS injected animals using similar acquisition settings.
FIG. 14B explores this relationship in a plot from all of the measurements (for each condition: 4 mice, 3-4 sections with 20 random measurements each). All fluorescence intensity measurements were conducted with 10 μm^2-sized regions of interest placed outside of tomato-lectin stained blood vessels (ROI as in Photograph 1 of FIG. 14A); the positions of these ROIs were then measured against the location of the nearest blood vessel wall to produce the scatterplot in FIG. 14B.
The resulting data were used as a metric to examine how well the mini nanodrug was able to travel from the vessels into the surrounding parenchyma and encounter brain cells. […] Nanoconjugate diffused fluorescence intensity vs. ‘distance from vasculature’ measurements in brain parenchyma of mice injected with nanoconjugates at a dose of 0.274 μmol/Kg. Fluorescence measurements were obtained from […] regions of interest (ROI) that were randomly overlaid on regions devoid of vasculature (shown by yellow squares in FIG. 22A). Intensity measurements and positions were then obtained for each ROI and plotted against the location of the nearest blood vessel wall.

brain cells = settings: 0.274 μmol/kg
Procedure: For the particulate fluorescence analysis, images were converted to binary images, and then 5 ROIs 20*20 μm^2 were drawn per image. The area of each particle on the ROI was measured using the Image) particle analysis tool, where each particle was measured separately. Sizes were then summarized, sorted, and further analyzed using Minitab18 software (Minitab, Inc, State College, Pa., USA). Particulate areas observed between different conditions were compared via a one-way ANOVA combined with post-hoc Tukey tests to test differences between each experimental group.
A more reliable method to separate the particulate from the cellular fluorescence was reasoned to be by adjusting the levels of the image and converting it to a binary image, allowing the detection of only particulates eliminating interference of the diffused background. FIGS. 29A-29D illustrate intracellular fluorescence of mini nanodrugs.
Each ROI was converted to binary (black and white) image and the area and number of particles were quantified. 3 images per brain area were tested for 3 mice per group.
The particle content (example of ROI in FIG. 29A) then was measured. The average size of the particulate fluorescence is a proxy to estimate the intracellular load of fluorescent nanoconjugates following their injections. An example of such an analysis is shown in FIG. 29A: the yellow squares indicate regions of interest that were used to quantify particulate fluorescence. FIGS. 29B-29C summarize the average size of the intracellular fluorescence particles in the cortex ([…]), midbrain (FIG. 29C), and the hippocampus (FIG. 29C).

neurons and astroglia = settings: for % of positive cells, Cortex astroglia: astroglia (GFAP); for % of positive cells, Cortex neurons: neurons (Neun)
Procedure: Neuronal and glial counterstaining: In FIGS. 27A-27C, brain tissue from drug-injected mice was counterstained to determine if our nanoconjugates are taken up by neurons or glia. Cryosections ([…]) were air-dried for 10 min, fixed with 2% paraformaldehyde for 5 min, and then rinsed three times with PBS. […] The antibodies anti-Neun (Abcam, Cambridge, Mass., USA; AB104225) and anti-GFAP (Neuromics, Edina, Minn., USA; C1122102) were then diluted 1:500 in PBS-T and tissue sections incubated simultaneously with antibody solutions overnight at 4° C. in a humid chamber. Tissue sections were then washed five times with PBS-T and incubated in appropriate secondary antibody diluted 1:250 in PBS-T, for 2-4 h. After five washes in PBS at room temperature, sections were mounted between coverslips in Fluoromount-G with DAPI.
To this end, after systemic injection of our D-conjugates we counterstained brain tissue sections of hippocampus and cortex with anti-Neun to label neurons, and with anti-GFAP to label astroglia (FIGS. 27A-27C) and inspected the stained sections for red fluorescent particulates. […] Positive neurons and glia cells were counted after systemic injection of conjugates containing D1, D3, AC189 peptides, and of a control PBS (FIGS. 27A-27C).

Aβ plaque = molecular target: T1, Aβ plaque (Homo sapiens, UniProt P05067); experiment: Percentage of total plaques labeled by mini nanodrugs in AD mice; format: in vivo,  (B6.Cg-Tg (APPswe/PS1ΔE9) 85Dbo/J hemizygous) mice
T1 construct: tissue Jackson Laboratories; host or cells: brain of 6-8 month old APPswe/PS1ΔE9 transgenic mice, plaques labelled in vivo after iv injection and counterstained on sections
Procedure: Slides were air dries and fixed using freshly diluted 2% PFA for 5 minutes. The PFA was washed 3 timed with PBS, and brains were covered with 70% EtOH for 5 minutes before washing with dH2O for 2 minutes. 1× Amylo-Glo (Biosenses, #TR-300-AG 100×, diluted with PBS) was then added for 10 minutes. The slides were then washed with PBS (5 minutes) and dH2O (15 seconds) and mounted (Fluoromount-G, No DAPI, Invitrogen), and stored at 4° C. prior to imaging.
Brains were collected and preserved in OTC for immunostaining.

neurons = settings: 0.274 μmol/Kg, vs PBS
glioblastoma GL261 = settings: mouse, in vivo
Brain (other hemisphere) = settings: 2 h, PBS background subtracted
[1] = Zeta potential measurements (Zetasizer Nano ZS90); format: physicochemical; settings: in PBS; voltage 150 mV
Procedure: Zeta Potential Measurements: Synthesized conjugates were characterized with respect to their ζ potential using a Zetasizer Nano ZS90 (Malvern Instruments, Malvern, UK). Ten microliter aliquots of nanoconjugate samples were diluted in 0.99 mL PBS, and the voltage applied was 150 mV. Data represent the mean of three measurements±their standard deviation.

[2] = test system: blood-brain barrier (BBB); settings: transgenic mice vs normal mice, doses 2×-8×
Procedure: AD-Mouse models: 6-8 month old […] (B6.Cg-Tg (APPswe/PS1ΔE9) 85Dbo/J hemizygous) mice were obtained from Jackson Laboratories. Mouse maintenance and experimental procedures followed the guidelines established by the Cedars Sinai Institutional Animal Care and Use Committee (IACUC Protocol #7416). Three to four mice of each sex were used for each experiment. Nanoconjugates were dissolved freshly in PBS (pH 7.4) prior to each experiment and injected intravenously (i.v.) into the lateral tail vein. […] Mice were anesthetized with isoflurane beforehand and their tails were briefly warmed to facilitate injections. The drug injection volume was kept constant at 150 μL. After each injection, mice were promptly returned to their cages. Brains were collected and preserved in OTC for immunostaining.
The brains were harvested and a 14 μm thick slices which were fixed and stained with DAPI to envision the nuclei
A comparison with normal brain was beneficial for understanding of the development of Alzheimer's disease.

amyloid β (Aβ) plaques = amyloid β (Aβ) plaques (UniProt P05067); experiment: in vivo labelling of Aβ plaques after i.v. injection of rhodamine-labelled conjugate into APPswe/PS1ΔE9 AD mice, dose 8X; fluorescence microscopy of brain sections
[3] = molecular target: low density lipoprotein receptor-related protein-1 (LRP-1) (mouse (endogenous receptor of the injected BALB/C mice)) (UniProt Q91ZX7); experiment: cell-based or functional assay
[4] = injected dose 8X (0.55 μmol/Kg)

T1 sequence (P05067 672-713 limits assumed): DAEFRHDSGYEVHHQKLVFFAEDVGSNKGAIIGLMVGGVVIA
amyloid β (Aβ) plaques, sequence (P05067 672-713): as the sequence (P05067 672-713 limits assumed) above
low density lipoprotein receptor-related protein-1 (LRP-1) (mouse (endogenous receptor of the injected BALB/C mice)), sequence (Q91ZX7 20-4545): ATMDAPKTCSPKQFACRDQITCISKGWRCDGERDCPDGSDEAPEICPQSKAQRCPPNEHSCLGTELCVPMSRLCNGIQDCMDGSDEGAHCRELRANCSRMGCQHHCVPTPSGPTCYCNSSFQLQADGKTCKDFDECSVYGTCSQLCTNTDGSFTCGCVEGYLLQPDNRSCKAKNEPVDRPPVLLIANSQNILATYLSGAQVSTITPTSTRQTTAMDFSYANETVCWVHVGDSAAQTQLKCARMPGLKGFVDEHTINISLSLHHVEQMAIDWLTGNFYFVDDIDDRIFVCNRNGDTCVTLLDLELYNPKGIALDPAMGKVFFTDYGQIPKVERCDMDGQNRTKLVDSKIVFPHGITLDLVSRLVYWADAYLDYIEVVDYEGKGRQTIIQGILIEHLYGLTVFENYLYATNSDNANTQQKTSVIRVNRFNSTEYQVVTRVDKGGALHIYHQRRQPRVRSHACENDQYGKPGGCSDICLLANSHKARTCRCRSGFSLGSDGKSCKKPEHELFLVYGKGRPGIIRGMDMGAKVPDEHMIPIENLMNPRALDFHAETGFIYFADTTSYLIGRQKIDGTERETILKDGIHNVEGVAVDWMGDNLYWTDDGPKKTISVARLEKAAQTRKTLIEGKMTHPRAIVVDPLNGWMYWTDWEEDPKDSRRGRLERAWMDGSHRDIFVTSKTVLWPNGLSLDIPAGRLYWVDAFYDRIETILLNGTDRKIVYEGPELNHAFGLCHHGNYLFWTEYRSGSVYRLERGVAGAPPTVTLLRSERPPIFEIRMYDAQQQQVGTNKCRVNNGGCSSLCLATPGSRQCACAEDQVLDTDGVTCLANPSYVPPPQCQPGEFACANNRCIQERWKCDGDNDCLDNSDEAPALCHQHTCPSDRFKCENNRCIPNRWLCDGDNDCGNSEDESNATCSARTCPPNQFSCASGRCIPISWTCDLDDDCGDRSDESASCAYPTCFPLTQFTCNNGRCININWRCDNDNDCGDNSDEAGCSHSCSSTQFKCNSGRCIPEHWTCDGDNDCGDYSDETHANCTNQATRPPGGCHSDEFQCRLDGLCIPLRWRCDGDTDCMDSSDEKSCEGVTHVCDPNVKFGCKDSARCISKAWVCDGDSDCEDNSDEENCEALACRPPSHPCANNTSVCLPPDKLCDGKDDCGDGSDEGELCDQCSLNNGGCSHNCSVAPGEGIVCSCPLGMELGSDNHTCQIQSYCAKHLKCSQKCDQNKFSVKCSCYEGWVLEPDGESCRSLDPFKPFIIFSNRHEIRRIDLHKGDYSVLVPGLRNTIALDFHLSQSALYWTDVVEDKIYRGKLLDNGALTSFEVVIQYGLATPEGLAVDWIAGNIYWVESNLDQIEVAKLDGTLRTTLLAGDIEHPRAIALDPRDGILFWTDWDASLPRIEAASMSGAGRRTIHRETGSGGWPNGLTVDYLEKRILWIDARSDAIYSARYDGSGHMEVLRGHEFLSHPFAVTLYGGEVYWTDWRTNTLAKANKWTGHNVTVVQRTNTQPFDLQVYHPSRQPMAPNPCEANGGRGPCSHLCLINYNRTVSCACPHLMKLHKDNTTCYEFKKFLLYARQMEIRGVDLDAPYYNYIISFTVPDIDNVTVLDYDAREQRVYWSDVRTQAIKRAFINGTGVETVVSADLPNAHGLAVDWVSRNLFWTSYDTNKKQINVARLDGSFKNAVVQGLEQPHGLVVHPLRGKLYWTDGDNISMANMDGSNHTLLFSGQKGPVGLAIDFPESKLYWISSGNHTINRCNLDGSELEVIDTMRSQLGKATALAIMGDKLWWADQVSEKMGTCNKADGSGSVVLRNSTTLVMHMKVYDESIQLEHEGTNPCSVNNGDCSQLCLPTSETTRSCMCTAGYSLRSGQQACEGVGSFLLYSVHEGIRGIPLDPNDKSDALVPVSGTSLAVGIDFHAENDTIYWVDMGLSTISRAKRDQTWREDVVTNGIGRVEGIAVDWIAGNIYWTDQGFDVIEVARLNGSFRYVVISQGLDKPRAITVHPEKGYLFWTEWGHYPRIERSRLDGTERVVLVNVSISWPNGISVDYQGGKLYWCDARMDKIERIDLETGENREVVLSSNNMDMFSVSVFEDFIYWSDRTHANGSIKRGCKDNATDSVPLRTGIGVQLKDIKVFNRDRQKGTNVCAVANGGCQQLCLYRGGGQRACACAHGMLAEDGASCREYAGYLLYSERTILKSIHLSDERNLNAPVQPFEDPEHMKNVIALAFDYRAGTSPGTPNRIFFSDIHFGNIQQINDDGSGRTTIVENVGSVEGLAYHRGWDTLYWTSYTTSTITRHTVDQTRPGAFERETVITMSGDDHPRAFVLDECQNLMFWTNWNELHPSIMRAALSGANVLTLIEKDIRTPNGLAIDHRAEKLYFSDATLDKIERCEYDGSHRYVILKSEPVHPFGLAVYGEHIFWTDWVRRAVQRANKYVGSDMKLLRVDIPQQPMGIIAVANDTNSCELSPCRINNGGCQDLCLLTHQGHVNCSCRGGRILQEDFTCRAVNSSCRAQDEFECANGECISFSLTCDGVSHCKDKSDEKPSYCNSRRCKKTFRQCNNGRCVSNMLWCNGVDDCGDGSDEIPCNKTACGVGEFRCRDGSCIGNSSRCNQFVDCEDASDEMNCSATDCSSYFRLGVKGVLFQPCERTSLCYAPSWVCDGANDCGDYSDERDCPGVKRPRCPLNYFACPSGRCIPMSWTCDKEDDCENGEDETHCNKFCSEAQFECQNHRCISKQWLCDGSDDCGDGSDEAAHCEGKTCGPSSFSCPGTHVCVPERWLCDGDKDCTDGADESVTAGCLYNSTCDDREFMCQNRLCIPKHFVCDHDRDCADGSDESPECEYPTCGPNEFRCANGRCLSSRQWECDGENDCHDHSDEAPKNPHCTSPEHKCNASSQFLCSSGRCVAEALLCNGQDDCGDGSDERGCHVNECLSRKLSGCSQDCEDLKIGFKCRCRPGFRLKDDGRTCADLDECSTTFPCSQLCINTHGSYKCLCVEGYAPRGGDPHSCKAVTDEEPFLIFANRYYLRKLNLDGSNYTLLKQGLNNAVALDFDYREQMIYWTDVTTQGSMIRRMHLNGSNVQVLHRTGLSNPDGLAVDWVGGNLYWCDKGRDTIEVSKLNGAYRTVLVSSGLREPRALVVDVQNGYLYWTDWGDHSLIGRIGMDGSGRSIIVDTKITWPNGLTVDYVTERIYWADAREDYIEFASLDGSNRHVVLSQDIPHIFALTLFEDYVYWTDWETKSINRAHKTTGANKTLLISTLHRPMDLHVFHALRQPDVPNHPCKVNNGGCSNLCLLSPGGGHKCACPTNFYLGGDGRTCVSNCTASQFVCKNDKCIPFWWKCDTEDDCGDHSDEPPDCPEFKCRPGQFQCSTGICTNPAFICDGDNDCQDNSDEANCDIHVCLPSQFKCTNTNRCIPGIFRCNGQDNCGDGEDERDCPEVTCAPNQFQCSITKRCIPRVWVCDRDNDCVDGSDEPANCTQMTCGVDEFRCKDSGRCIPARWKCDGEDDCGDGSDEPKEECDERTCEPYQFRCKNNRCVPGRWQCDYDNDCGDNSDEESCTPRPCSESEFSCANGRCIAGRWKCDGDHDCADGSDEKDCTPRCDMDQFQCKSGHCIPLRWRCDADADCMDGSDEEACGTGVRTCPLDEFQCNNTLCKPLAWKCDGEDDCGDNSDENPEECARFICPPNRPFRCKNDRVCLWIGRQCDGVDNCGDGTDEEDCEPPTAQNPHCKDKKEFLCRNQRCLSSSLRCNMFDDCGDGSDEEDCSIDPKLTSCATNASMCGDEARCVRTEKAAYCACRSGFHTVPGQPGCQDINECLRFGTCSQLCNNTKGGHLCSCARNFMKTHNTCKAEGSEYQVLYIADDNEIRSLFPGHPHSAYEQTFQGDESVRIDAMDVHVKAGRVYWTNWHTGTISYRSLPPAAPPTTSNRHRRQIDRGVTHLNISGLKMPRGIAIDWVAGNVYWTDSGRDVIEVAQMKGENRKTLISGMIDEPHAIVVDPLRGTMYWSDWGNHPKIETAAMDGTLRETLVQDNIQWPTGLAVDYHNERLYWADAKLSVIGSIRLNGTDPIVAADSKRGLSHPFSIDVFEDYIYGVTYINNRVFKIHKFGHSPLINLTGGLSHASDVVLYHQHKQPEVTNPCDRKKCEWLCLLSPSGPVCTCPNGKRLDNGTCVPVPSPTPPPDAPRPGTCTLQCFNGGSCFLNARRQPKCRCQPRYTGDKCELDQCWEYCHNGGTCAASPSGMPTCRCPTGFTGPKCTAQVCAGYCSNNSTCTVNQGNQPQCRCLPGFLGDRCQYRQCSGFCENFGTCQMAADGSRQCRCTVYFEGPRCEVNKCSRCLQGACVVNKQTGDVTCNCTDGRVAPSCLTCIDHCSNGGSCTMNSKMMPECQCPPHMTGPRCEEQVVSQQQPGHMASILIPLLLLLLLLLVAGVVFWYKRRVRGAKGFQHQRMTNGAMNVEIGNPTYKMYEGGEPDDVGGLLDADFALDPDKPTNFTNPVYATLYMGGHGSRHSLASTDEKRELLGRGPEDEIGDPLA

Molecule: PMLA/LLL/D3/rhodamine (peptide 1 RPRTRLHTHRNRC; peptide 2 Leu-Leu-Leu; not fully specified (some residues)) [P/LLL/D3]
- cortex Y intercepts of fluorescence vs distance curves (exponential fits) (brain parenchyma): 21.1
- increase of particle diameter in comparison with PBS (brain cells): 2.5 fold
- #Labeled/#total counted cells, Cortex astroglia (neurons and astroglia): [7/46]
- % of positive cells, Cortex astroglia (neurons and astroglia): 15.2%
- #Labeled/#total counted cells, Cortex neurons (neurons and astroglia): [286/300]
- % of positive cells, Cortex neurons (neurons and astroglia): 95.3%
- #Labeled/#total counted cells, Hippocampus astroglia (neurons and astroglia): [14/47]
- % of positive cells, Hippocampus astroglia (neurons and astroglia): 29.8%
- #Labeled/#total counted cells, Hippocampus neurons (neurons and astroglia): [894/967]
- % of positive cells, Hippocampus neurons (neurons and astroglia): 92.45%
- Percentage of total plaques labeled by the reagents (Aβ plaque; injected dose 2X): 0% all in a single box
- Percentage of total plaques labeled by the reagents (Aβ plaque; injected dose 4X): 0%
- Percentage of total plaques labeled by the reagents (Aβ plaque; injected dose 6X): 0%
- Percentage of total plaques labeled by the reagents (Aβ plaque; [4]): 21.1%
- average fluorescence per neuron nucleus (in words) (neurons): significantly higher than for PBS
- Tumor fluorescence (glioblastoma GL261): 92.6
- ratio Tumor/Brain (glioblastoma GL261): 11.9
- Brain (other hemisphere) fluorescence (Brain (other hemisphere); dose 4X): 7.8

Molecule: PMLA/LLL/B6/rhodamine (peptide 1 CGHKAKGPRK; peptide 2 Leu-Leu-Leu; also: conjugated to polymalic acid (PMLA), rhodamine label) [P/LLL/B6]
- ζ potential [1]: −6.1 mV
- BBB permeation efficacy in AD brain (in words) [2]: A decrease was not observed
- Percentage of total plaques labeled by the reagents (Aβ plaque; [4]): 3.3%
- dose-dependent change of tumor fluorescence between 1× and 4× (glioblastoma GL261): 23 fold
- Brain (other hemisphere) fluorescence (Brain (other hemisphere); dose 1X): 1.2
- Brain (other hemisphere) fluorescence (Brain (other hemisphere); dose 4X): 6.8

Molecule: PMLA/LLL/B6/rhodamine
- Percentage of total plaques labeled by the reagents (amyloid β (Aβ) plaques): 3.3%

Molecule: PMLA/LLL/M4/rhodamine (peptide 1 KAPETALD; peptide 2 Leu-Leu-Leu; not fully specified) [P/LLL/M4]
- ζ potential [1]: −10.4 mV
- Percentage of total plaques labeled by the reagents (Aβ plaque; [4]): 0%
- Tumor fluorescence (glioblastoma GL261): 86.2
- ratio Tumor/Brain (glioblastoma GL261): 22.8
- Brain (other hemisphere) fluorescence (Brain (other hemisphere); dose 4X): 3.8

Molecule: PMLA/LLL/AP2/Miniap4/rhodamine [P/LLL/AP2/M4]
- ζ potential [1]: −5.5 mV

Molecule: PMLA/M4/rhodamine (KAPETALD; not fully specified) [P/M4]
- ζ potential [1]: −14.6 mV

Molecule: PMLA/LLL/rhodamine (Leu-Leu-Leu; also: conjugated to PMLA with rhodamine, link not given here) [P/LLL, polymalic acid with tri-leucine (40%) and rhodamine]
- Percentage of total plaques labeled by the reagents (Aβ plaque; [4]): 4.5%

Molecule: PMLA/LLL/AP2/rhodamine
- Percentage of total plaques labeled by the reagents (amyloid β (Aβ) plaques): 1.23%

Molecule: PMLA/LLL/D1/rhodamine (peptide 1 QSHYRHISPAQVC; peptide 2 Leu-Leu-Leu; not fully specified) [P/LLL/D1]
- cortex Y intercepts of fluorescence vs distance curves (exponential fits) (brain parenchyma): 21.6
- increase of particle diameter in comparison with PBS (brain cells): 2.5 fold
- #Labeled/#total counted cells, Cortex astroglia (neurons and astroglia): [5/40]
- % of positive cells, Cortex astroglia (neurons and astroglia): 12.5%
- #Labeled/#total counted cells, Cortex neurons (neurons and astroglia): [119/141]
- % of positive cells, Cortex neurons (neurons and astroglia): 84.4%
- #Labeled/#total counted cells, Hippocampus astroglia (neurons and astroglia): [4/57]
- % of positive cells, Hippocampus astroglia (neurons and astroglia): 7.0%
- #Labeled/#total counted cells, Hippocampus neurons (neurons and astroglia): [286/433]
- % of positive cells, Hippocampus neurons (neurons and astroglia): 66.0%
- Percentage of total plaques labeled by the reagents (Aβ plaque; [4]): 0%
- average fluorescence per neuron nucleus (in words) (neurons): significantly higher than for PBS
- Tumor fluorescence (glioblastoma GL261): 86.6
- ratio Tumor/Brain (glioblastoma GL261): 16.4
- Brain (other hemisphere) fluorescence (Brain (other hemisphere); dose 4X): 5.3

Molecule: PMLA/LLL/rhodamine
- Percentage of total plaques labeled by the reagents (amyloid β (Aβ) plaques): 4.5%

B1: PMLA/LLL/D1/rhodamine (peptide)
peptide 1: [dQ][dS][dH][dY][dR][dH][dI][dS][dP][dA][dQ][dV]C
peptide 2: Leu-Leu-Leu
modifications: not fully specified (some residues, N-terminus); also: LLL amide-linked to PMLA carboxylates
- P/LLL/D1/rh fluorescence intensity in the brain parenchyma (BBB crossing) on co-injection of a 70-fold molar excess of AP2 [3]: 54.5%
- P/LLL/D1/rh fluorescence intensity in the parenchyma (transcytosis) with 21 µmol/kg free AP2 [3]: 50%
